Test results taken from patent US7214519B2, “Screening method for identifying heme independent modulators of soluble guanylyl cyclase (sGC) activity using αβCys105 mutant sGC” (Board of Regents of the University of Texas System, priority 2003, dated 2007).
Changes are numbered by the printed parent chain. Like-named read-outs stand apart in the source and are kept apart here.

Legend:
αβ^Cys105 mutant sGC [1] = molecular target: T1, αβ^Cys105 mutant sGC (Homo sapiens, UniProt Q02108+Q02153, H105C); assay: Assay of sGC activity ([32P]cGMP formation from GTP), purified αβ^Cys105 mutant enzyme; type: biochemical; conditions: for sensitivity to SNP after addition of hemin: absence of DTT
T1 construct: made in house; host or cells: Sf9 cells (baculovirus)
T1 sequence (Q02153 1-619 H105C): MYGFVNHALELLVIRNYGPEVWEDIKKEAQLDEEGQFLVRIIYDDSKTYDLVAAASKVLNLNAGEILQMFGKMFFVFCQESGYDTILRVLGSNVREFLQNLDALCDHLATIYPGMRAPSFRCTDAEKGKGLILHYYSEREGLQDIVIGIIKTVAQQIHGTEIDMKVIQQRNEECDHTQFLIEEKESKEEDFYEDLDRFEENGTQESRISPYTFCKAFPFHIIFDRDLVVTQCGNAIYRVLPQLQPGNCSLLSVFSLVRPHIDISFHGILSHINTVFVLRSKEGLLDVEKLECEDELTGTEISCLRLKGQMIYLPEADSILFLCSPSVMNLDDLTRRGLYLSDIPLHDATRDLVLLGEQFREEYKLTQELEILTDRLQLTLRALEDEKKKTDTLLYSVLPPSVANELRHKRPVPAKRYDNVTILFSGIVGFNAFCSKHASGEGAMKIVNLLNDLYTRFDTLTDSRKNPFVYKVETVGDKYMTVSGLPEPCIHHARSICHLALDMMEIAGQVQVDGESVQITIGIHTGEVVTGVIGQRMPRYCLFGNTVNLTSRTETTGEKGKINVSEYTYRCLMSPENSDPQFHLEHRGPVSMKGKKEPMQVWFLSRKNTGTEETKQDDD
T1 sequence (Q02108 1-690): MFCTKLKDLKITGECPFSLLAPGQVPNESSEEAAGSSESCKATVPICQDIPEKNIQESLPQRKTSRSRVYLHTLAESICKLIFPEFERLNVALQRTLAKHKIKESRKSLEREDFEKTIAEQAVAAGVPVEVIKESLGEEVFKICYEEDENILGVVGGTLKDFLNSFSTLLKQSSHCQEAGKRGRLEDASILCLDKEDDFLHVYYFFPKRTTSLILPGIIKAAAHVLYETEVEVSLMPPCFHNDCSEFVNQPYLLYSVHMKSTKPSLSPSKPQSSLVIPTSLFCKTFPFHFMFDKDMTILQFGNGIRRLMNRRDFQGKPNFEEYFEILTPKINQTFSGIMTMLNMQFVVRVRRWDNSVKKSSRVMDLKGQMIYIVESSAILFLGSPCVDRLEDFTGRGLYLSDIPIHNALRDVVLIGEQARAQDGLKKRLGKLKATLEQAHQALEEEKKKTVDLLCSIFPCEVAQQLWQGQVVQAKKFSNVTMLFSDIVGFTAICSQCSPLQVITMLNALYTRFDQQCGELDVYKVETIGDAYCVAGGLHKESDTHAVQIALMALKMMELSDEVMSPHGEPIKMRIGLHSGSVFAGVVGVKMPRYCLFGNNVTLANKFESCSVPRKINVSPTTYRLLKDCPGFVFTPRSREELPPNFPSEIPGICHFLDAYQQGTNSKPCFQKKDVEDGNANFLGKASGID
Procedure: (§1) sGC Expression and Purification. […] Purification of sGC was performed as described earlier (26), the disclosure of which is hereby incorporated herein by reference, with the following modifications. Cells were harvested 72 h post infection, resuspended in loading buffer (25 mM triethanolamine, pH 7.5. 10 glycerol, 4 mM MgCl2 and 1 mM phenylmethylsulfonyl fluoride, and 5 μg/ml each of pepstatin A, leupeptin, aprotinin, and chymostatin,) and lysed by sonication. The lysate was subjected to 100,000×g centrifugation for 1 h. The high-speed supernate was loaded on a 60 ml DEAE-Sepharose (Amersham Pharmacia Biotech) column and washed with 60 ml of loading buffer without protease inhibitors. The proteins were eluted with loading buffer containing 250 mM NaCl and the eluate was directly loaded on a 30 ml His-Bind resin (Novagen) column. The column was washed with 60 ml of loading buffer followed by 60 ml of loading buffer with 45 mM imidazole. The enzyme was eluted with 175 mM imidazole and 2 ml fractions were collected. […] The enzyme at this stage was approximately 90–95% pure. To remove imidazole, sGC-containing fractions were diluted 3 fold with 25 mM triethanolamine pH 7.5, loaded on a 2 ml Hi-Trap DEAE-Sepharose column (Amersham Pharmacia Biotech), washed with 10 ml of loading buffer and eluted with 25 mM triethanolamine pH 7.5, 250 mM NaCl, 10 glycerol, 4 mM MgCl2, 0.5 mM EDTA, 0.5 mM EGTA. The enzyme obtained at this stage (95% or greater purity) was used for experiments.
(§2) Assay of sGC Activity. Enzyme activity was assayed by formation of [^32P] cGMP from α[^32P]GTP at 37° C. in a final volume of 100 μl. Incubation medium contained 50 mM triethanolamine-HCl buffer (pH 7.4), 1 mM 3-isobutyl-1-methylxanthine (IBMX), 1 mg/ml BSA. 1 mM cGMP, 3 mM MgCl2, 0.05 mg/ml creatine phosphokinase, 5 mM creatine phosphate, 0.1 mM EGTA. 200 μM GTP (about 10.000 cpm/pmol). The reaction was started by addition of the substrate (GTP) with or without activators. 1 mM DTT, GSH or cysteine were added to the incubation medium before the addition of GTP. Thiol concentration varied in some experiments as indicated. Samples containing 0.2 μg sGC were incubated for 10 or 15 min and the reaction was stopped by addition of 500 μl 150 mM zinc acetate and 500 μl 180 mM sodium carbonate. The pellet of zinc carbonate containing most of the unreacted GTP was removed by centrifugation and the supernatant fractions were loaded onto columns filled with 1 g of neutral alumina. Columns were then eluted with 10 ml 0.1 M Tris-HCl buffer (pH 7.5) and Cherenkov radiation in flow through plus eluate was counted in a LKB liquid scintillation spectrometer. Samples incubated in the absence of sGC were used as a negative control. The concentration of dimethylsulfoxide (DMSO) used as a vehicle for YC-1 was not higher than 0.1 and had no effect on sGC activity as determined previously.

αβ^Cys105 mutant sGC [2] = molecular target: T1, αβ^Cys105 mutant sGC; assay: Heme reconstitution of DTT-treated αβ^Cys105 enzyme followed by UV-Vis spectroscopy; type: binding; conditions: data not shown
Procedure: UV-Vis Spectroscopy. All absorbance measurements were recorded with a dual-beam Cecil 9500 spectrophotometer at 25° C. […] Hemin stock solution (5 mM) was prepared in DMSO and was reduced by dilution in 25 mM TEA, pH 7.5 containing 5 mM DTT to a working solution of 500 μM. The reduced heme was kept under argon in a gas-tight vial during the reconstitution.
The enzyme reconstituted with 10 μM hemin was subjected to gel filtration (after GF) or treated for 15 min with 50 μM NOC-7 (with NO) and the spectra recorded, as shown in FIG. 5D.

wild type sGC [3] = molecular target: T2, wild type sGC (Homo sapiens, UniProt Q02108+Q02153); assay: Assay of sGC activity ([32P]cGMP formation from GTP), purified wild type enzyme; type: biochemical
T2 construct: made in house; host or cells: Sf9 cells (baculovirus)
T2 sequence (Q02153 1-619): T1 sequence (Q02153 1-619 H105C) with C105H
T2 sequence (Q02108 1-690): T1 sequence (Q02108 1-690)
Procedure: as §1, §2

[4] = molecular target: T3, Sf9 cells expressing wild type sGC (Homo sapiens, UniProt Q02108+Q02153); assay: cGMP accumulation in intact Sf9 cells expressing wild type sGC; type: cell-based; conditions: basal, 0.5 mM IBMX
T3 construct: expressed in transfected cells; host or cells: Sf9 cells infected with baculoviruses
T3 sequence (Q02153 1-619): T1 sequence (Q02153 1-619 H105C) with C105H
T3 sequence (Q02108 1-690): T1 sequence (Q02108 1-690)
Procedure: Assay of cGMP Accumulation in Intact Cells. […] The reaction was terminated by addition of 50 μl of 1 M perchloric acid and cGMP was extracted on ice for 1 h. The extract was centrifuged, neutralized with 2M K2CO3 and used for cGMP determination by radioimmunoassay (9, 27). The pellet was dissolved in 0.1 M NaOH and used for protein assay by the method of Lowry (28).
Accumulated cGMP was extracted and quantified as described in Materials and Methods. Values are shown as means±s.d. The differences in intracellular accumulation of cGMP in Sf9 cells expressing the wild type enzyme or the mutant form are discussed below.

wild type sGC [5] = molecular target: T2, wild type sGC; conditions: cited from earlier work

## Hemin [reference compound]
αβ^Cys105 mutant sGC [1]; 1 μM hemin
  sensitivity to SNP after addition of hemin: did not confer any sensitivity to SNP
αβ^Cys105 mutant sGC [1]; 10 μM hemin, data not shown
  sensitivity to SNP after addition of hemin: did not have any significant effect
αβ^Cys105 mutant sGC [1]; presence of 1 mM DTT
  NO-activation upon addition of hemin: partially restored its NO-activation
αβ^Cys105 mutant sGC [2]
  molar excess of reduced hemin at which binding is saturated: 13 fold molar excess

## Wild Type: recombinant wild type human soluble guanylyl cyclase expressed in Sf9 cells
Wild type sGC [3]; +DTT
  PPIX activation, fold: 14 fold
Wild type sGC [3]; +NO (SNP), with DTT (1 mM)
  Specific activity: 1.45 ± 0.1 µmol/min/mg
Wild type sGC [3]; +NO (SNP), with DTT (1 mM), listed as wild type
  Specific activity: 1.4 µmol/min/mg
Wild type sGC [3]; +NO, without DTT
  Specific activity: 1.41 ± 0.2 µmol/min/mg
Wild type sGC [3]; Basal, with DTT (1 mM)
  Specific activity: 0.02 ± 0.01 µmol/min/mg
Wild type sGC [3]; Basal, with DTT (1 mM), listed as Wild type
  Specific activity: 0.02 µmol/min/mg
Wild type sGC [3]; Basal, with DTT (1 mM), listed as wild type
  Specific activity: 0.02 µmol/min/mg
Wild type sGC [3]; Basal, without DTT
  Specific activity: 0.05 ± 0.02 µmol/min/mg
Wild type sGC [3]; Basal, without DTT, listed as Wild type
  Specific activity: 0.05 µmol/min/mg
Wild type sGC [3]; No DTT
  PPIX activation, fold: 6 fold
Wild type sGC [3]; with DTT
  fold activation by NO: (72.5) fold
[4]
  rate of cGMP accumulation: 0.9 nmol/mg/5 min
Wild type sGC [5]; Basal, read-out: GTP-Km
  Km: 65 to 448 µM
Wild type sGC [5]; NO, read-out: GTP-Km
  Km: 11 to 134 µM
Wild type sGC [5]; literature (12, 30–32), read-out: range of GTP-Km measured for the recombinant sGC
  Km: 65 to 450 µM
Wild type sGC [5]; recombinant wild type human sGC, previous studies
  specific activity after exposure to NO: ~1.5 µmol/min/mg
